Experimental findings from doi:10.1101/801027 are described below.

This data set concerns the target T1, Hfq (Pseudomonas putida KT2440, UniProt Q88DD3 1-86).
T1 sequence: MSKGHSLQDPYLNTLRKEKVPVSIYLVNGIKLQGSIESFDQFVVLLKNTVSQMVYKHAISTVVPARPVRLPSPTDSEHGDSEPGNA
Put plainly: EMSA. A general note: A gel shift assay detects complexes by their altered migration in electrophoresis.

B1: MicC scaffold (structured_RNA)
RNA: UUUCUGUUGGGCCAUUGCAUUGCCACUGAUUUUCCAACAUAUAAAAAGACAAGCCCGAACAGUCGUCCGGGCUUUUUUU
B1: the binding result was “binds”.
